Assay results from patent publication US20230192819A1 (TWIST BIOSCIENCE, published 2023).

How the values were obtained:
[1] = target: T1, Acro S1 spike protein (SARS-CoV-2) (SARS-CoV-2, UniProt P0DTC2 16-685); experiment: SPR (Carterra LSA)
[2] = target: T2, S1 variant B.1.1.7: UK (Acro) spike protein (SARS-CoV-2, UniProt P0DTC2 16-1213); experiment: SPR (Carterra LSA)
[3] = target: T3, C52Hk S. African variant (Acro) spike protein (SARS-CoV-2, UniProt P0DTC2 16-1213); experiment: SPR (Carterra LSA)
[4] = target: T4, C52Hg Brazilian variant (Acro) spike protein (SARS-CoV-2, UniProt P0DTC2 16-1213); experiment: SPR (Carterra LSA)
[5] = target: T1, Acro S1 spike protein (SARS-CoV-2); experiment: SPR (Carterra LSA); […]; 1:1 model; […]
[6] = target: T1, Acro S1 spike protein (SARS-CoV-2); experiment: SPR (Carterra LSA); antibody on chip, spike protein as analyte; summary table
[7] = target: T2, S1 variant B.1.1.7: UK (Acro) spike …; experiment: SPR (Carterra LSA); […]; 1:1 model; […]
[8] = target: T4, C52Hg Brazilian variant (Acro) spike …; experiment: SPR (Carterra LSA); […]; 1:1 model; […]
[9] = target: T2, S1 variant B.1.1.7: UK (Acro) spike …; experiment: SPR (Carterra LSA); antibody on chip, spike protein as analyte; summary table
[10] = target: T4, C52Hg Brazilian variant (Acro) spike …; experiment: as above
[11] = target: T3, C52Hk S. African variant (Acro) spike …; experiment: SPR (Carterra LSA); […]; 1:1 model; […]
[12] = target: T3, C52Hk S. African variant (Acro) spike …; experiment: SPR (Carterra LSA); antibody on chip, spike protein as analyte; summary table

B1: Antibody 1-6 (Fc fusion)
chain: EVQLVESGGGLVQPGGSLRLSCAASGSISSINVMGWFRQAPGKEREWMGVMAYDGSTYYADSVKGRFTISADNSKNTAYLQMNSLKPEDTAVYYCAAFDGYSGSDWGQGTLVTVSS
binding result [1]: no binding
binding result [2]: no binding
binding result [3]: no binding
binding result [4]: no binding

B2: Antibody 1-2 (Fc fusion)
chain: EVQLVESGGGLVQPGGSLRLSCAASGGSEYSYSTFSSFVMGWFRQAPGKERELVASISWSGGHTFYADSVKGRFTISADNSKNTAYLQMNSLKPEDTAVYYCAAYLRGPYYSSFYDSTKYEWGQGTLVTVSS
Kd [5]: 2.41 nM
koff [5]: 0.00053 s⁻¹
kon [5]: 220000 M⁻¹ s⁻¹
Kd [6]: 2.41 nM

B3: Antibody 1-16 (Fc fusion)
chain: EVQLVESGGGLVQPGGSLRLSCAASGRTYAMGWFRQAPGKERELVAEITAGGSTYYADSVKGRFTISADNSKNTAYLQMNSLKQEDTAVYYCAVDGPFGWGQGTLVTVSS
Kd [7]: 1.06 nM
koff [7]: 0.00037 s⁻¹
kon [7]: 350000 M⁻¹ s⁻¹
Kd [8]: 4.79 nM
koff [8]: 0.0034 s⁻¹
kon [8]: 710000 M⁻¹ s⁻¹
Kd [9]: 1.06 nM
Kd [10]: 4.79 nM

B4: Antibody 1-20 (Fc fusion)
chain: EVQLVESGGGLVQPGGSLRLSCAASGRTFRRYTMGWFRQAPGKEREFVASITSSGVNAYADSVKGRFTISADNSKNTAYLQMNSLKPEDTAVYYCAKEDVGKPFDWGQDTLVTVSS
binding result [1]: no binding
binding result [2]: no binding
binding result [3]: no binding
binding result [4]: no binding

B5: Antibody 1-3 (Fc fusion)
chain: EVQLVESGGGLVQPGGSLRLSCAASGTTFRINVMGWFRQAPGKEREFVAGISWTGGSTIYADSVKGRFTISADNSKNTAYLQMNSLKPEDTAVYYCAAFDGYSGSDWGQGTLVTVSS
binding result [1]: no binding
binding result [2]: no binding
binding result [3]: no binding
binding result [4]: no binding

B6: Antibody 1-21 (Fc fusion)
chain: EVQLVESGGGLVQPGGSLRLSCAASGPTFSIYAMGWFRQAPGKERELVAGISWNGGSTNYADSVKGRFTISADNSKNTAYLQMNSLKPEDTAVYYCAAFDGYTGSDWGQGTLVTVSS
binding result [1]: no binding
binding result [2]: no binding
binding result [3]: no binding
binding result [4]: no binding

B7: Antibody 1-11 (Fc fusion)
chain: EVQLVESGGGLVQPGGSLRLSCAASGFTFDDYVMGWFRQAPGKEREFVAVISWTGESTLYADSVKGRFTISADNSKNTAYLQMNSLKPEDTAVYYCAAFDGYSGSDWGQGTLVTVSS
Kd [11]: 5 nM
koff [11]: 0.0019 s⁻¹
kon [11]: 380000 M⁻¹ s⁻¹
Kd [8]: 4.67 nM
koff [8]: 0.0014 s⁻¹
kon [8]: 300000 M⁻¹ s⁻¹
Kd [12]: 5 nM
Kd [10]: 4.67 nM

B8: Antibody 1-13 (Fc fusion)
chain: EVQLVESGGGLVQPGGSLRLSCAASGRTTFSSYTMGWFRQAPGKEREFVASITRSGVLNYADSVKGRFTISADNSKNTAYLQMNSLKPEDTAVYYCAKEDVGKPFDWGQGTLVTVSS
Kd [5]: 18.2 nM
koff [5]: 0.0031 s⁻¹
kon [5]: 170000 M⁻¹ s⁻¹
Kd [7]: 5.18 nM
koff [7]: 0.00088 s⁻¹
kon [7]: 170000 M⁻¹ s⁻¹
Kd [6]: 18.2 nM
Kd [9]: 5.18 nM

B9: Antibody 1-17 (Fc fusion)
chain: EVQLVESGGGLVQPGGSLRLSCAASGRTIVPYTMGWFRQAPGKEREEVAAISTGGGGTYYADSVKGRFTISADNSKNTAYLQMNSLKPEDTAVYYCAVDGPFGWGQGTLVTVSS
Kd [5]: 5.15 nM
koff [5]: 0.0017 s⁻¹
kon [5]: 330000 M⁻¹ s⁻¹
Kd [6]: 5.15 nM
